Changes are numbered by the printed parent chain. Values belong to the binder of their own block, whether it stands above or below them.
Molecular target: human ROR1 extracellular domain-Fc fusion (human) (UniProt Q01973)
Assay: SPR, hROR1 ECD-Fc on chip

Kd: 8.92 nM
koff: 0.00567 s⁻¹
kon: 636000 M⁻¹ s⁻¹
B1: D3 ADV1 dimer (VNAR, part only; not given: Linker between the domains, not shown: small tags and cut ends)
chain, part: ASVNQSPSSLSASVGDRVTITCVLTDTSYGLYSTSWFRKNPGTTDWERMSIGGRYSESVNKGAKSFTLTISSLQPEDSATYYCKAQSGMAISTGSGHGYNWYDGAGTKVEIKASVNQSPSSLSASVGDRVTITCVLTDTSYGLYSTSWFRKNPGTTDWERMSIGGRYSESVNKGAKSFTLTISSLQPEDSATYYCKAQSGMAISTGSGHGYNWYDGAGTKVEIKQASGAHHHHHHGAEFEQKLISEEDLG

Kd: 26.2 nM
koff: 0.016 s⁻¹
kon: 609000 M⁻¹ s⁻¹
B2: D3 ADV2 dimer (VNAR, part only; not given: Linker between the domains, not shown: small tags and cut ends)
chain, part: B1 chain, part with A1T, S2R, N4D, A113T, S114R, N116D

Source: US20210317204A1
